Assay results published in patent US20250243277A1 (AVACTA LIFE SCIENCES, published 2025).

B1: Clone 108 (designed binder)
chain: MIPGGLSEAKPATPEIQEIVDKVKPQLEEKTGETYGKLEAVQYKTQVDREHASVKFWGTNYYIKVRAGDNKYMHLKVFKSLWLEATPHTQEDLVLTGYQVDKNKDDELTGF
notes: His-tagged
B2: Clone 105 (designed binder)
chain: MIPGGLSEAKPATPEIQEIVDKVKPQLEEKTGETYGKLEAVQYKTQVDETSENVIQWGTNYYIKVRAGDNKYMHLKVFKSLWPADILTQHEDLVLTGYQVDKNKDDELTGF
notes: His-tagged
B3: Clone 110 (designed binder)
chain: MIPGGLSEAKPATPEIQEIVDKVKPQLEEKTGETYGKLEAVQYKTQVDHTQPKALDWGTNYYIKVRAGDNKYMHLKVFKSLWGSILTDGPEDLVLTGYQVDKNKDDELTGF
notes: His-tagged
B4: Clone 102 (designed binder)
chain: MIPGGLSEAKPATPEIQEIVDKVKPQLEEKTGETYGKLEAVQYKTQVDRKAAVVARHGTNYYIKVRAGDNKYMHLKVFKSLWPFLVIEKYEDLVLTGYQVDKNKDDELTGF
notes: His-tagged
B5: Clone 95 (designed binder)
chain: MIPGGLSEAKPATPEIQEIVDKVKPQLEEKTGETYGKLEAVQYKTQVDTIHPQAKYWGTNYYIKVRAGDNKYMHLKVFKSLWKNLLKPIHEDLVLTGYQVDKNKDDELTGF
notes: His-tagged
B6: Clone 104 (designed binder)
chain: MIPGGLSEAKPATPEIQEIVDKVKPQLEEKTGETYGKLEAVQYKTQVDNAHPLVKNWGTNYYIKVRAGDNKYMHLKVFKSLWRNDTSSIYEDLVLTGYQVDKNKDDELTGF
notes: His-tagged
B7: Clone 11 (designed binder)
chain: MIPGGLSEAKPATPEIQEIVDKVKPQLEEKTGETYGKLEAVQYKTQVVEVQQQENFQGTNYYIKVRAGDNKYMHLKVFKSLHIYEHIVYREDLVLTGYQVDKNKDDELTGF
notes: His-tagged
B8: Clone 10 (designed binder)
chain: MIPGGLSEAKPATPEIQEIVDKVKPQLEEKTGETYGKLEAVQYKTQVVDDVKNGFVQGTNYYIKVRAGDNKYMHLKVFKSLIDRHVYWLEEDLVLTGYQVDKNKDDELTGF
notes: His-tagged
B9: Clone 40 (designed binder)
chain: MIPGGLSEAKPATPEIQEIVDKVKPQLEEKTGETYGKLEAVQYKTQVVKRRHFPQWQGTNYYIKVRAGDNKYMHLKVFKSLGDHLNQYPNEDLVLTGYQVDKNKDDELTGF
notes: His-tagged
B10: Clone 175 (designed binder)
chain: MIPGGLSEAKPATPEIQEIVDKVKPQLEEKTGETYGKLEAVQYKTQVVWRRWFPQWPGTNYYIKVRAGDNKYMHLKVFKSLPEADADDPKEDLVLTGYQVDKNKDDELTGF
notes: His-tagged
B11: Clone 247 (designed binder)
chain: MIPGGLSEAKPATPEIQEIVDKVKPQLEEKTGETYGKLEAVQYKTQVVRREHFPRWPGTNYYIKVRAGDNKYMHLKVFKSLDLLLRKEEVEDLVLTGYQVDKNKDDELTGF
notes: His-tagged
B12: Clone 48 (designed binder)
chain: MIPGGLSEAKPATPEIQEIVDKVKPQLEEKTGETYGKLEAVQYKTQVVTRKHFPQYWGTNYYIKVRAGDNKYMHLKVFKSLNEPLPVTNIEDLVLTGYQVDKNKDDELTGF
notes: His-tagged
B13: Clone 246 (designed binder)
chain: MIPGGLSEAKPATPEIQEIVDKVKPQLEEKTGETYGKLEAVQYKTQVVERFHFPQFPGTNYYIKVRAGDNKYMHLKVFKSLPHLDYIWNWEDLVLTGYQVDKNKDDELTGF
notes: His-tagged
B14: Clone 184 (designed binder)
chain: MIPGGLSEAKPATPEIQEIVDKVKPQLEEKTGETYGKLEAVQYKTQVVHRKHFHQFTGTNYYIKVRAGDNKYMHLKVFKSLSNDYYETYLEDLVLTGYQVDKNKDDELTGF
notes: His-tagged
B15: Clone 103 (designed binder)
chain: MIPGGLSEAKPATPEIQEIVDKVKPQLEEKTGETYGKLEAVQYKTQVDFSFPLVHWYGTNYYIKVRAGDNKYMHLKVFKSLRFRDGGHHVEDLVLTGYQVDKNKDDELTGF
notes: His-tagged
B16: Clone 101 (designed binder)
chain: MIPGGLSEAKPATPEIQEIVDKVKPQLEEKTGETYGKLEAVQYKTQVDHHHRFAKWWGTNYYIKVRAGDNKYMHLKVFKSLWFNENREDTEDLVLTGYQVDKNKDDELTGF
notes: His-tagged
B17: Clone 107 (designed binder)
chain: MIPGGLSEAKPATPEIQEIVDKVKPQLEEKTGETYGKLEAVQYKTQVDFTDIHWSTWGTNYYIKVRAGDNKYMHLKVFKSLIPAWQQIHVEDLVLTGYQVDKNKDDELTGF
notes: His-tagged
B18: Clone 1 (designed binder)
chain: MIPGGLSEAKPATPEIQEIVDKVKPQLEEKTGETYGKLEAVQYKTQVVVYHVRWNYLGTNYYIKVRAGDNKYMHLKVFKSLSLEEPPVETEDLVLTGYQVDKNKDDELTGF
notes: His-tagged
B19: Clone 56 (designed binder)
chain: MIPGGLSEAKPATPEIQEIVDKVKPQLEEKTGETYGKLEAVQYKTQVVGGRHRWNWSGTNYYIKVRAGDNKYMHLKVFKSLFEPSGLAAEEDLVLTGYQVDKNKDDELTGF
notes: His-tagged
B20: Clone 194 (designed binder)
chain: MIPGGLSEAKPATPEIQEIVDKVKPQLEEKTGETYGKLEAVQYKTQVVEERRIWNWTGTNYYIKVRAGDNKYMHLKVFKSLFTASDTHPAEDLVLTGYQVDKNKDDELTGF
notes: His-tagged
B21: Clone 149 (designed binder)
chain: MIPGGLSEAKPATPEIQEIVDKVKPQLEEKTGETYGKLEAVQYKTQVVKTLGVWHWSGTNYYIKVRAGDNKYMHLKVFKSLFEQHAENIEEDLVLTGYQVDKNKDDELTGF
notes: His-tagged
B22: Clone 77 (designed binder)
chain: MIPGGLSEAKPATPEIQEIVDKVKPQLEEKTGETYGKLEAVQYKTQVVWDRPRWGWTGTNYYIKVRAGDNKYMHLKVFKSLFKESSRNDEEDLVLTGYQVDKNKDDELTGF
notes: His-tagged
B23: Clone 84 (designed binder)
chain: MIPGGLSEAKPATPEIQEIVDKVKPQLEEKTGETYGKLEAVQYKTQVVLIRHLWSWSGTNYYIKVRAGDNKYMHLKVFKSLFEGENHQIDEDLVLTGYQVDKNKDDELTGF
notes: His-tagged
B24: Clone 86 (designed binder)
chain: MIPGGLSEAKPATPEIQEIVDKVKPQLEEKTGETYGKLEAVQYKTQVVDVRGQWAWTGTNYYIKVRAGDNKYMHLKVFKSLFQPRTKATEEDLVLTGYQVDKNKDDELTGF
notes: His-tagged
B25: Clone 109 (designed binder)
chain: MIPGGLSEAKPATPEIQEIVDKVKPQLEEKTGETYGKLEAVQYKTQVDISGVGLVPNGTNYYIKVRAGDNKYMHLKVFKSLNWNYPQQPFEDLVLTGYQVDKNKDDELTGF
notes: His-tagged

What follows are binders tested against T1, human PD-L1-Fc (R&D Systems) (human, UniProt Q9NZQ7 19-239) (assay: soluble Affimer ELISA).
T1 construct: Bought from R&D Systems; Biotinylated in-house for the phage selection; also called huPD-L1-Fc; human PD-L1-Fc antigen; not shown: Fc part of the bought fusion
T1 sequence (Q9NZQ7 19-239 limits assumed): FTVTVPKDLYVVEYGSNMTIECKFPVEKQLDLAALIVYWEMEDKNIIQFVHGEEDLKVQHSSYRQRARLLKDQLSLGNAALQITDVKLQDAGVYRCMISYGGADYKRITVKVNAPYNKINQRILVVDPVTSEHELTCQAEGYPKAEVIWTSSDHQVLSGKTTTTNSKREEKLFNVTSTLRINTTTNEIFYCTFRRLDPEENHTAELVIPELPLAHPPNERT

Binder | binding result
B1 | binds
B2 | binds
B3 | binds
B4 | binds
B5 | binds
B6 | binds
B7 | binds
B8 | binds
B9 | binds
B10 | binds
B11 | binds
B12 | binds
B13 | binds
B14 | binds
B15 | binds
B16 | binds
B17 | binds
B18 | binds
B19 | binds
B20 | binds
B21 | binds
B22 | binds
B23 | binds
B24 | binds
B25 | binds
